# The supplement of paper PMC10266784
# B1: library; numbered along this chain (parent)
# chain: MAAAAAAAAEQQSSNGPVKKSMREKAVERRSVNKEHNSNFKAGYIPIDEDRLHKTGLRGRKGNLAICVIILLFILAVINLIITLVIWAVIRIGPNGCDSMEFHESGLLRFKQVSDMGVIHPLYKSTVGGRRNENLVITGNNQPIVFQQGTTKLSVENNKTSITSDIGMQFFDPRTQNILFSTDYETHEFHLPSGVKSLNVQKASTERITSNATSDLNIKVDGRAIVRGNEGVFIMGKTIEFHMGGNMELKAENSIILNGSVMVSTTRLPSSSSGDQLGSGDWVRYKLCMCADGTLFKVQVTSQNMGCQISDNPCGNTH
# Variants of: B1
# Test: SGCB cell-surface expression functional score (HA stain, bin4 vs bin1, normalised to synonymous) (log10 ratio); higher = more cell-surface SGCB (functional)
# Description: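 Deep mutational scan of full-length human SGCB (YFP-SGCB-HA, NNN codon sublibraries A-F) delivered by lentivirus at low MOI into ADG-HEK293 cells stably expressing SGCA, SGCD and SGCG. YFP-positive cells were stained for surface HA on unpermeabilized cells and FACS-sorted into bins. The functional score is log10(frequency in high bin 4 / frequency in low bin 1), normalised per chunk so that synonymous variants have mean 0 and SD 0.5. Scores are the median over codons and over duplicate biological replicates; scores below -0.5 are called non-functional. Scale: negative means deleterious.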
row,Variant,SGCB cell-surface expression functional score (log10)
1,VAAAAAAAAEQQSSNGPVKKSMREKAVERRSVNKEHNSNFKAGYIPIDEDRLHKTGLRGRKGNLAICVIILLFILAVINLIITLVIWAVIRIGPNGCDSMEFHESGLLRFKQVSDMGVIHPLYKSTVGGRRNENLVITGNNQPIVFQQGTTKLSVENNKTSITSDIGMQFFDPRTQNILFSTDYETHEFHLPSGVKSLNVQKASTERITSNATSDLNIKVDGRAIVRGNEGVFIMGKTIEFHMGGNMELKAENSIILNGSVMVSTTRLPSSSSGDQLGSGDWVRYKLCMCADGTLFKVQVTSQNMGCQISDNPCGNTH [M1V],0.28
2,GAAAAAAAAEQQSSNGPVKKSMREKAVERRSVNKEHNSNFKAGYIPIDEDRLHKTGLRGRKGNLAICVIILLFILAVINLIITLVIWAVIRIGPNGCDSMEFHESGLLRFKQVSDMGVIHPLYKSTVGGRRNENLVITGNNQPIVFQQGTTKLSVENNKTSITSDIGMQFFDPRTQNILFSTDYETHEFHLPSGVKSLNVQKASTERITSNATSDLNIKVDGRAIVRGNEGVFIMGKTIEFHMGGNMELKAENSIILNGSVMVSTTRLPSSSSGDQLGSGDWVRYKLCMCADGTLFKVQVTSQNMGCQISDNPCGNTH [M1G],0.1
3,KAAAAAAAAEQQSSNGPVKKSMREKAVERRSVNKEHNSNFKAGYIPIDEDRLHKTGLRGRKGNLAICVIILLFILAVINLIITLVIWAVIRIGPNGCDSMEFHESGLLRFKQVSDMGVIHPLYKSTVGGRRNENLVITGNNQPIVFQQGTTKLSVENNKTSITSDIGMQFFDPRTQNILFSTDYETHEFHLPSGVKSLNVQKASTERITSNATSDLNIKVDGRAIVRGNEGVFIMGKTIEFHMGGNMELKAENSIILNGSVMVSTTRLPSSSSGDQLGSGDWVRYKLCMCADGTLFKVQVTSQNMGCQISDNPCGNTH [M1K],0.14
4,EAAAAAAAAEQQSSNGPVKKSMREKAVERRSVNKEHNSNFKAGYIPIDEDRLHKTGLRGRKGNLAICVIILLFILAVINLIITLVIWAVIRIGPNGCDSMEFHESGLLRFKQVSDMGVIHPLYKSTVGGRRNENLVITGNNQPIVFQQGTTKLSVENNKTSITSDIGMQFFDPRTQNILFSTDYETHEFHLPSGVKSLNVQKASTERITSNATSDLNIKVDGRAIVRGNEGVFIMGKTIEFHMGGNMELKAENSIILNGSVMVSTTRLPSSSSGDQLGSGDWVRYKLCMCADGTLFKVQVTSQNMGCQISDNPCGNTH [M1E],-0.03
5,QAAAAAAAAEQQSSNGPVKKSMREKAVERRSVNKEHNSNFKAGYIPIDEDRLHKTGLRGRKGNLAICVIILLFILAVINLIITLVIWAVIRIGPNGCDSMEFHESGLLRFKQVSDMGVIHPLYKSTVGGRRNENLVITGNNQPIVFQQGTTKLSVENNKTSITSDIGMQFFDPRTQNILFSTDYETHEFHLPSGVKSLNVQKASTERITSNATSDLNIKVDGRAIVRGNEGVFIMGKTIEFHMGGNMELKAENSIILNGSVMVSTTRLPSSSSGDQLGSGDWVRYKLCMCADGTLFKVQVTSQNMGCQISDNPCGNTH [M1Q],0.35
6,RAAAAAAAAEQQSSNGPVKKSMREKAVERRSVNKEHNSNFKAGYIPIDEDRLHKTGLRGRKGNLAICVIILLFILAVINLIITLVIWAVIRIGPNGCDSMEFHESGLLRFKQVSDMGVIHPLYKSTVGGRRNENLVITGNNQPIVFQQGTTKLSVENNKTSITSDIGMQFFDPRTQNILFSTDYETHEFHLPSGVKSLNVQKASTERITSNATSDLNIKVDGRAIVRGNEGVFIMGKTIEFHMGGNMELKAENSIILNGSVMVSTTRLPSSSSGDQLGSGDWVRYKLCMCADGTLFKVQVTSQNMGCQISDNPCGNTH [M1R],-0.06
7,NAAAAAAAAEQQSSNGPVKKSMREKAVERRSVNKEHNSNFKAGYIPIDEDRLHKTGLRGRKGNLAICVIILLFILAVINLIITLVIWAVIRIGPNGCDSMEFHESGLLRFKQVSDMGVIHPLYKSTVGGRRNENLVITGNNQPIVFQQGTTKLSVENNKTSITSDIGMQFFDPRTQNILFSTDYETHEFHLPSGVKSLNVQKASTERITSNATSDLNIKVDGRAIVRGNEGVFIMGKTIEFHMGGNMELKAENSIILNGSVMVSTTRLPSSSSGDQLGSGDWVRYKLCMCADGTLFKVQVTSQNMGCQISDNPCGNTH [M1N],0.37
8,TAAAAAAAAEQQSSNGPVKKSMREKAVERRSVNKEHNSNFKAGYIPIDEDRLHKTGLRGRKGNLAICVIILLFILAVINLIITLVIWAVIRIGPNGCDSMEFHESGLLRFKQVSDMGVIHPLYKSTVGGRRNENLVITGNNQPIVFQQGTTKLSVENNKTSITSDIGMQFFDPRTQNILFSTDYETHEFHLPSGVKSLNVQKASTERITSNATSDLNIKVDGRAIVRGNEGVFIMGKTIEFHMGGNMELKAENSIILNGSVMVSTTRLPSSSSGDQLGSGDWVRYKLCMCADGTLFKVQVTSQNMGCQISDNPCGNTH [M1T],-1.08
9,YAAAAAAAAEQQSSNGPVKKSMREKAVERRSVNKEHNSNFKAGYIPIDEDRLHKTGLRGRKGNLAICVIILLFILAVINLIITLVIWAVIRIGPNGCDSMEFHESGLLRFKQVSDMGVIHPLYKSTVGGRRNENLVITGNNQPIVFQQGTTKLSVENNKTSITSDIGMQFFDPRTQNILFSTDYETHEFHLPSGVKSLNVQKASTERITSNATSDLNIKVDGRAIVRGNEGVFIMGKTIEFHMGGNMELKAENSIILNGSVMVSTTRLPSSSSGDQLGSGDWVRYKLCMCADGTLFKVQVTSQNMGCQISDNPCGNTH [M1Y],-0.02
10,PAAAAAAAAEQQSSNGPVKKSMREKAVERRSVNKEHNSNFKAGYIPIDEDRLHKTGLRGRKGNLAICVIILLFILAVINLIITLVIWAVIRIGPNGCDSMEFHESGLLRFKQVSDMGVIHPLYKSTVGGRRNENLVITGNNQPIVFQQGTTKLSVENNKTSITSDIGMQFFDPRTQNILFSTDYETHEFHLPSGVKSLNVQKASTERITSNATSDLNIKVDGRAIVRGNEGVFIMGKTIEFHMGGNMELKAENSIILNGSVMVSTTRLPSSSSGDQLGSGDWVRYKLCMCADGTLFKVQVTSQNMGCQISDNPCGNTH [M1P],0.21
11,DAAAAAAAAEQQSSNGPVKKSMREKAVERRSVNKEHNSNFKAGYIPIDEDRLHKTGLRGRKGNLAICVIILLFILAVINLIITLVIWAVIRIGPNGCDSMEFHESGLLRFKQVSDMGVIHPLYKSTVGGRRNENLVITGNNQPIVFQQGTTKLSVENNKTSITSDIGMQFFDPRTQNILFSTDYETHEFHLPSGVKSLNVQKASTERITSNATSDLNIKVDGRAIVRGNEGVFIMGKTIEFHMGGNMELKAENSIILNGSVMVSTTRLPSSSSGDQLGSGDWVRYKLCMCADGTLFKVQVTSQNMGCQISDNPCGNTH [M1D],0.69
12,IAAAAAAAAEQQSSNGPVKKSMREKAVERRSVNKEHNSNFKAGYIPIDEDRLHKTGLRGRKGNLAICVIILLFILAVINLIITLVIWAVIRIGPNGCDSMEFHESGLLRFKQVSDMGVIHPLYKSTVGGRRNENLVITGNNQPIVFQQGTTKLSVENNKTSITSDIGMQFFDPRTQNILFSTDYETHEFHLPSGVKSLNVQKASTERITSNATSDLNIKVDGRAIVRGNEGVFIMGKTIEFHMGGNMELKAENSIILNGSVMVSTTRLPSSSSGDQLGSGDWVRYKLCMCADGTLFKVQVTSQNMGCQISDNPCGNTH [M1I],-1.06
13,FAAAAAAAAEQQSSNGPVKKSMREKAVERRSVNKEHNSNFKAGYIPIDEDRLHKTGLRGRKGNLAICVIILLFILAVINLIITLVIWAVIRIGPNGCDSMEFHESGLLRFKQVSDMGVIHPLYKSTVGGRRNENLVITGNNQPIVFQQGTTKLSVENNKTSITSDIGMQFFDPRTQNILFSTDYETHEFHLPSGVKSLNVQKASTERITSNATSDLNIKVDGRAIVRGNEGVFIMGKTIEFHMGGNMELKAENSIILNGSVMVSTTRLPSSSSGDQLGSGDWVRYKLCMCADGTLFKVQVTSQNMGCQISDNPCGNTH [M1F],-0.28
14,HAAAAAAAAEQQSSNGPVKKSMREKAVERRSVNKEHNSNFKAGYIPIDEDRLHKTGLRGRKGNLAICVIILLFILAVINLIITLVIWAVIRIGPNGCDSMEFHESGLLRFKQVSDMGVIHPLYKSTVGGRRNENLVITGNNQPIVFQQGTTKLSVENNKTSITSDIGMQFFDPRTQNILFSTDYETHEFHLPSGVKSLNVQKASTERITSNATSDLNIKVDGRAIVRGNEGVFIMGKTIEFHMGGNMELKAENSIILNGSVMVSTTRLPSSSSGDQLGSGDWVRYKLCMCADGTLFKVQVTSQNMGCQISDNPCGNTH [M1H],0.01
15,WAAAAAAAAEQQSSNGPVKKSMREKAVERRSVNKEHNSNFKAGYIPIDEDRLHKTGLRGRKGNLAICVIILLFILAVINLIITLVIWAVIRIGPNGCDSMEFHESGLLRFKQVSDMGVIHPLYKSTVGGRRNENLVITGNNQPIVFQQGTTKLSVENNKTSITSDIGMQFFDPRTQNILFSTDYETHEFHLPSGVKSLNVQKASTERITSNATSDLNIKVDGRAIVRGNEGVFIMGKTIEFHMGGNMELKAENSIILNGSVMVSTTRLPSSSSGDQLGSGDWVRYKLCMCADGTLFKVQVTSQNMGCQISDNPCGNTH [M1W],-0.07
16,SAAAAAAAAEQQSSNGPVKKSMREKAVERRSVNKEHNSNFKAGYIPIDEDRLHKTGLRGRKGNLAICVIILLFILAVINLIITLVIWAVIRIGPNGCDSMEFHESGLLRFKQVSDMGVIHPLYKSTVGGRRNENLVITGNNQPIVFQQGTTKLSVENNKTSITSDIGMQFFDPRTQNILFSTDYETHEFHLPSGVKSLNVQKASTERITSNATSDLNIKVDGRAIVRGNEGVFIMGKTIEFHMGGNMELKAENSIILNGSVMVSTTRLPSSSSGDQLGSGDWVRYKLCMCADGTLFKVQVTSQNMGCQISDNPCGNTH [M1S],0.07
17,AAAAAAAAAEQQSSNGPVKKSMREKAVERRSVNKEHNSNFKAGYIPIDEDRLHKTGLRGRKGNLAICVIILLFILAVINLIITLVIWAVIRIGPNGCDSMEFHESGLLRFKQVSDMGVIHPLYKSTVGGRRNENLVITGNNQPIVFQQGTTKLSVENNKTSITSDIGMQFFDPRTQNILFSTDYETHEFHLPSGVKSLNVQKASTERITSNATSDLNIKVDGRAIVRGNEGVFIMGKTIEFHMGGNMELKAENSIILNGSVMVSTTRLPSSSSGDQLGSGDWVRYKLCMCADGTLFKVQVTSQNMGCQISDNPCGNTH [M1A],0.12
18,CAAAAAAAAEQQSSNGPVKKSMREKAVERRSVNKEHNSNFKAGYIPIDEDRLHKTGLRGRKGNLAICVIILLFILAVINLIITLVIWAVIRIGPNGCDSMEFHESGLLRFKQVSDMGVIHPLYKSTVGGRRNENLVITGNNQPIVFQQGTTKLSVENNKTSITSDIGMQFFDPRTQNILFSTDYETHEFHLPSGVKSLNVQKASTERITSNATSDLNIKVDGRAIVRGNEGVFIMGKTIEFHMGGNMELKAENSIILNGSVMVSTTRLPSSSSGDQLGSGDWVRYKLCMCADGTLFKVQVTSQNMGCQISDNPCGNTH [M1C],0.25
19,LAAAAAAAAEQQSSNGPVKKSMREKAVERRSVNKEHNSNFKAGYIPIDEDRLHKTGLRGRKGNLAICVIILLFILAVINLIITLVIWAVIRIGPNGCDSMEFHESGLLRFKQVSDMGVIHPLYKSTVGGRRNENLVITGNNQPIVFQQGTTKLSVENNKTSITSDIGMQFFDPRTQNILFSTDYETHEFHLPSGVKSLNVQKASTERITSNATSDLNIKVDGRAIVRGNEGVFIMGKTIEFHMGGNMELKAENSIILNGSVMVSTTRLPSSSSGDQLGSGDWVRYKLCMCADGTLFKVQVTSQNMGCQISDNPCGNTH [M1L],-1.26
